# Test results: US7217570B2, “Organotypic intestinal culture and methods of use thereof” (The Wistar Institute of Anatomy and Biology, priority 2001, dated 2007)
# B1: Keratinocyte growth factor (protein, UniProt P21781 32-194, looked up)
# Fibroblast growth factor 7: CNDMTPEQMATNVNCSSPERHTRSYDYMEGGDIRVRRLFCRTQWYLRIDKRGKVKGTQEMKNNYNIMEIRTVAVGIVAIKGVESEFYLAMNKEGKLYAKKECNEDCNFKELILENHYNTYASAKWTHNGGEMFVALNQKGIPVRGKKTKKEQKTAHFLPMAIT
# notes: Keratinocyte growth factor (R&D Systems) at 20 ng/ml
# B2: epidermal growth factor (protein, UniProt P01133 23-1207, looked up)
# Pro-epidermal growth factor: PQHWSCPEGTLAGNGNSTCVGPAPFLIFSHGNSIFRIDTEGTNYEQLVVDAGVSVIMDFHYNEKRIYWVDLERQLLQRVFLNGSRQERVCNIEKNVSGMAINWINEEVIWSNQQEGIITVTDMKGNNSHILLSALKYPANVAVDPVERFIFWSSEVAGSLYRADLDGVGVKALLETSEKITAVSLDVLDKRLFWIQYNREGSNSLICSCDYDGGSVHISKHPTQHNLFAMSLFGDRIFYSTWKMKTIWIANKHTGKDMVRINLHSSFVPLGELKVVHPLAQPKAEDDTWEPEQKLCKLRKGNCSSTVCGQDLQSHLCMCAEGYALSRDRKYCEDVNECAFWNHGCTLGCKNTPGSYYCTCPVGFVLLPDGKRCHQLVSCPRNVSECSHDCVLTSEGPLCFCPEGSVLERDGKTCSGCSSPDNGGCSQLCVPLSPVSWECDCFPGYDLQLDEKSCAASGPQPFLLFANSQDIRHMHFDGTDYGTLLSQQMGMVYALDHDPVENKIYFAHTALKWIERANMDGSQRERLIEEGVDVPEGLAVDWIGRRFYWTDRGKSLIGRSDLNGKRSKIITKENISQPRGIAVHPMAKRLFWTDTGINPRIESSSLQGLGRLVIASSDLIWPSGITIDFLTDKLYWCDAKQSVIEMANLDGSKRRRLTQNDVGHPFAVAVFEDYVWFSDWAMPSVMRVNKRTGKDRVRLQGSMLKPSSLVVVHPLAKPGADPCLYQNGGCEHICKKRLGTAWCSCREGFMKASDGKTCLALDGHQLLAGGEVDLKNQVTPLDILSKTRVSEDNITESQHMLVAEIMVSDQDDCAPVGCSMYARCISEGEDATCQCLKGFAGDGKLCSDIDECEMGVPVCPPASSKCINTEGGYVCRCSEGYQGDGIHCLDIDECQLGEHSCGENASCTNTEGGYTCMCAGRLSEPGLICPDSTPPPHLREDDHHYSVRNSDSECPLSHDGYCLHDGVCMYIEALDKYACNCVVGYIGERCQYRDLKWWELRHAGHGQQQKVIVVAVCVVVLVMLLLLSLWGAHYYRTQKLLSKNPKNPYEESSRDVRSRRPADTEDGMSSCPQPWFVVIKEHQDLKNGGQPVAGEDGQAADGSMQPTSWRQEPQLCGMGTEQGCWIPVSSDKGSCPQVMERSFHMPSYGTQTLEGGVEKPHSLLSANPLWQQRALDPPHQMELTQ
# modifications: Pro-epidermal growth factor
# notes: human recombinant epidermal growth factor (Sigma)
# System: enteric epithelial cells
# Assay: Growth factor modulation of organotypic culture in reduced or modified media (Example 2)
# Format: cell-based, human
# Conditions: growth factor added individually to base medium (MCDB 201/L15, transferrin, antibiotics)
# Procedure: To determine the role of growth factors on proliferation of colonic epithelial cells, this growth medium was modified by changing combinations of growth factors and deleting serum. Keratinocyte growth factor (KGF, R&D Systems) at 20 ng/ml was also tested as part of 23 growth factor combinations. Total relative cell numbers of a specific type were counted as an average of all nuclei counts from a minimum of 3 randomly selected cross-sections of a reconstruct. Goblet cells were counted based on their typical morphology and positive Alcian staining in at least 3 randomly selected slides. Proliferation rates in % were established by counting the number of BrdU or Ki-67-positive nuclei per total epithelial cell nuclei of section. Apoptotic cells were counted in H&E-stained sections (Vagunda, V. et al. 2000 Anal. Quant. Cytol. Histol., 22:307–310). Apoptotic bodies and nuclei were determined according to the size and numbers of the fragments. Apoptosis was calculated as percentage of total nuclei per section (Kerr, J F. et al. 1972 Br. J. Cancer, 26:239–257) To define the role of critical growth factors supporting growth and differentiation of the enteric epithelial cells, an organotypic culture, such as that described in Example 1, was grown in medium in which the number of supplements was reduced. […]
row,Molecule,epithelial cell proliferation
1,B1,not supported
2,B2,not supported
